Measurements from article PMC6959987.

Legend:
[1] = target: Augmin-GFP (purified mitotic Augmin complex) (Drosophila | Drosophila (endogenous in embryos)) (UniProt Q9W0G7)
[2] = target: Augmin-GFP (purified mitotic Augmin complex) (Drosophila | Drosophila (endogenous in embryos)) (UniProt Q9W0G7); test: fluorescence microscopy of junctions between microtubules loaded with purified complexes; as the junction assay, but with HiLyte 647-labelled GMPCPP MT seeds (1:10) to mark the minus ends
[3] = target: Augmin-GFP (purified mitotic Augmin complex) (Drosophila | Drosophila (endogenous in embryos)) (UniProt Q9W0G7); test: fluorescence microscopy of junctions between microtubules loaded with purified complexes; taxol-stabilised Rhodamine-MTs incubated with γ-TuRC-GFP and HiLyte Fluor 488-MTs incubated with Augmin-GFP, each pelleted through 15% glycerol, mixed 1:1 for 10 min at room temperature, fixed and …

x50 (time at which 50% of Tubulin polymerisation was achieved) with Augmin-GFP added to γ-TuRC-GFP; γ-TuRC-GFP alone 16.5 mins, control 31.5mins [1]: 9.5 min | percent of γ-TuRC-RhodMTs generating branches on Augmin-488MTs [2]: 64% | percent of γ-TuRC-containing RhodMTs that terminate at an Augmin-containing 488MT [3]: 55%
Substance: γ-TuRC-GFP (purified mitotic γ-Tubulin Ring Complex) (from UniProt P42271 1-457; P42271 1-457)
